Measured values as given in the supplement of paper PMC12764529.
± gives the half width of the 95% confidence interval.

Experiments:
[1] = folding stability dG unfold from chymotrypsin proteolysis; higher = more stable
Method in brief: (§1)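 Mini-proteins designed to be under 80 residues and free of cysteine were carried in a PA-tagged cDNA display construct and digested with trypsin and with chymotrypsin. Each protease was applied at 11 threefold-diluted concentrations, alongside a no-protease condition, before sequencing. K50 came from Bayesian fitting of the sequencing counts, and unfolding free energy was obtained by comparing it with a sequence-predicted unfolded-state K50 and a shared folded-state K50, for each protease separately or for both together. Designs were retained only if their AlphaFold2 dimer inter-PAE exceeded 15.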

[2] = folding stability dG unfold (combined trypsin and chymotrypsin); higher = more stable
Method in brief: as §1

## SAGGSNKNSPEDQKRKQQPPQPKVRTIPGPLSEDQIKNLLDNGQPIIIEGPDGEWWVIKNNEIEPISAGGSA [r2_33_TrROS]
[1]
  folding stability dG unfold: 0.255 ± 0.14 kcal/mol
[2]
  folding stability dG unfold: -0.0552 ± 0.24 kcal/mol

## SAGGSPPYVNISMRRTPNGNMPLKVEIYDKDNEPVAEQEIEIPDMEPGEQWNFTIPIEPNMKLRIESAGGSA [r2_288_TrROS]
[1]
  folding stability dG unfold: 0.456 ± 0.13 kcal/mol
[2]
  folding stability dG unfold: -0.132 ± 0.12 kcal/mol

## SAGGSVLVTLTNPADGTPVTLPTPAEEAEAILASGDTAALEARHPGRPVAAVTVDPVSPRPPVPPGLASAGG [r13_629_JUSTAS]
[1]
  folding stability dG unfold: 0.223 ± 0.095 kcal/mol
[2]
  folding stability dG unfold: -0.651 ± 0.38 kcal/mol

## SAGGSVTLPPEEARAYAEAHPDRDLVLSMRPDDSTVTLELSVDPAAPGALSVRRREVFDPAGNATVVDSAGG [r13_481_JUSTAS]
[1]
  folding stability dG unfold: 0.308 ± 0.13 kcal/mol
[2]
  folding stability dG unfold: -0.182 ± 0.15 kcal/mol

## SAGGSVVTGVDEEELRAVAEALRAAGHTLADVRIERYPEDGTYRMTVTLVDPATAAPLADVLMVAKASAGGS [r16_750_JUSTAS]
[1]
  folding stability dG unfold: 0.887 ± 0.13 kcal/mol
[2]
  folding stability dG unfold: 0.312 ± 0.15 kcal/mol

## SAGGTIEEIRDQLKNMPPGYHVDLKIPNGRSHSFGSLEDIEDLPITNPNGRKIEITEVQPMPPPDEQSAGGS [r16_680_TrROS]
[1]
  folding stability dG unfold: 0.195 ± 0.16 kcal/mol
[2]
  folding stability dG unfold: -0.703 ± 0.68 kcal/mol

## SAGGTTTRTTVYFDDGKVYELTDPEEVEKTIKEKLGKNYKIVSEEEYTEPSPDGPPLPARRLKLKKKSAGGS [r16_408_JUSTAS]
[1]
  folding stability dG unfold: -0.795 ± 0.33 kcal/mol
[2]
  folding stability dG unfold: < -1 kcal/mol

## SAGGVIGTRKKVNKIEKPVPEGATTTPSIIGNTTILTTTAPDGSTVTVTLTKTEPIPGKPDVSEKYEASAGG [r13_804_JUSTAS]
[1]
  folding stability dG unfold: 0.11 ± 0.042 kcal/mol
[2]
  folding stability dG unfold: -0.265 ± 0.12 kcal/mol

## SAGKTIYIQGPLDELRKLPEIKEVEKTGNHWTLELPNVPIHIEIEPPPPVPVVPPEMPKEQMKEYMKKMSAG [r5_2_TrROS]
[1]
  folding stability dG unfold: 0.646 ± 0.32 kcal/mol
[2]
  folding stability dG unfold: 0.316 ± 0.37 kcal/mol

## SAGMDEYIRELIEKLPSENPSTSPITYRDKNIEAVTYYPSTNTTTFHFPGGEVISASPSTSIEEILKELSAG [r14_59_JUSTAS]
[1]
  folding stability dG unfold: 0.198 ± 0.22 kcal/mol
[2]
  folding stability dG unfold: -0.193 ± 0.19 kcal/mol

## SAGMEEILEAAREAIEAGLTVRIEVTFKDGKKEEIEIEVESLEELLEALEKLDEIESVKIEVLAPGEEPSAG [r5_956_TrROS_Hall]
[1]
  folding stability dG unfold: 2.95 ± 0.15 kcal/mol
[2]
  folding stability dG unfold: 3.61 ± 0.95 kcal/mol

## SAGMITLEKTVPLSEATPEKAKEIAEELLEKLKKEGLPEGLEKTSIEITELPGDELIVKVPTKIVSKESAGG [r19_87_JUSTAS]
[1]
  folding stability dG unfold: -0.556 ± 0.14 kcal/mol
[2]
  folding stability dG unfold: < -1 kcal/mol

## SAGMITRTITTVDPVDPALVAAISPDLVFPDGSTVSRDGDRLVITTPVTLALPPSPDPAGQLVLPTAASAGG [r19_148_JUSTAS]
[1]
  folding stability dG unfold: 0.483 ± 0.087 kcal/mol
[2]
  folding stability dG unfold: -0.00544 ± 0.17 kcal/mol

## SAGMKTLTGPPEVLEELVEKALKENPNAKTVTIVDGDKSVTVPKDEEVEFLEPAPQPDGEPYVTIEILESAG [r5_130_JUSTAS]
[1]
  folding stability dG unfold: 0.669 ± 0.048 kcal/mol
[2]
  folding stability dG unfold: 0.101 ± 0.13 kcal/mol

## SAGMKVVRTRTVWADDSDNPTPLAPEVELVRDAPPTFPLPVTVTTPDGRPYTGTLIALDPDREGLVLGGSAG [r5_735_TrMRF]
[1]
  folding stability dG unfold: 0.254 ± 0.17 kcal/mol
[2]
  folding stability dG unfold: -0.29 ± 0.19 kcal/mol

## SAGMMRVEVFGDGELLEVTELDGDTVEVPVPPERHRVRVFAPGDDRAAEAEVDPAKGVVVLKVPADARISAG [r5_469_TrMRF]
[1]
  folding stability dG unfold: -0.197 ± 0.24 kcal/mol
[2]
  folding stability dG unfold: -0.821 ± 0.38 kcal/mol

## SAGMPVLVSAPIPLARGPDGVARIDPALVRALAEAAGFTGRVESVEVRPLPDSYLVAVRLPDSVLLGESAGG [r19_398_TrMRF]
[1]
  folding stability dG unfold: 0.672 ± 0.077 kcal/mol
[2]
  folding stability dG unfold: -0.31 ± 0.11 kcal/mol

## SAGMSSTPQKIVRTTGSTPLPDGSAVSTTTTTYSDGSSTVTTAIPGGLETRATVPPDGTVTTTTAPLLGSAG [r5_168_JUSTAS]
[1]
  folding stability dG unfold: -0.248 ± 0.23 kcal/mol
[2]
  folding stability dG unfold: -0.422 ± 0.26 kcal/mol

## SAGMVKINVAKLPDGKYVITVVDANDGTPLLELPVDSPEGAEKAAKAIAEELKKKYPDATVEVDYTDFESAG [r5_383_TrMRF]
[1]
  folding stability dG unfold: 3.49 ± 0.19 kcal/mol
[2]
  folding stability dG unfold: 4.13 ± 0.64 kcal/mol

## SAGNPSLKLKTETQVEVTEVSESVLPDGGYTLTKSKFTVTTTIYDTTKPKVLSTETTEETETVATPLVSAGG [r19_136_JUSTAS]
[1]
  folding stability dG unfold: 0.442 ± 0.11 kcal/mol
[2]
  folding stability dG unfold: 0.0701 ± 0.07 kcal/mol

## SAGPLEELLARAERVEEDPSTGKRLVYTSDPELVRAALAEGAPDYTLTESPDDRRSALINFPPLPPGVLSAG [r14_115_JUSTAS]
[1]
  folding stability dG unfold: 0.32 ± 0.14 kcal/mol
[2]
  folding stability dG unfold: -0.0125 ± 0.14 kcal/mol

## SAGRPPEALREEVSEETITIPVPSTDSDEAPALTTKVTKTTTRLPTPVTTTTTTTTYPDGTTTTTTTAASAG [r5_580_JUSTAS]
[1]
  folding stability dG unfold: 0.285 ± 0.033 kcal/mol
[2]
  folding stability dG unfold: -0.061 ± 0.11 kcal/mol

## SAGSETVLKTTTEPRTEPDSEVETTTEVYPDGKRITRTTTTYPNPGEGNPATPVTTTTTTVTELPPNELSAG [r5_224_JUSTAS]
[1]
  folding stability dG unfold: -0.378 ± 0.12 kcal/mol
[2]
  folding stability dG unfold: < -1 kcal/mol

## SAGSIQVSESALAPGYSLYTITIPYQSIEDAKKLVEEIVSKRFSVPAEIIETKVDPNTGVVTFTVKVPPSAG [r5_810_JUSTAS]
[1]
  folding stability dG unfold: 5.31 ± 0.088 kcal/mol
[2]
  folding stability dG unfold: 5.32 ± 0.15 kcal/mol

## SAGSSRIIFYPENNTYLIETPEGSFTLPETVTTTTPAPTGENPDRTVPRPTTTYVATELSLEEAEKLLSSAG [r5_234_JUSTAS]
[1]
  folding stability dG unfold: 0.367 ± 0.051 kcal/mol
[2]
  folding stability dG unfold: -0.149 ± 0.076 kcal/mol

## SAGSVTVEVFGPGRLLATYTLDDTTTTVAVPPEPVRVRIRSPGDDAEATADADPATGVVTVTVPADLGLSAG [r5_469_JUSTAS]
[1]
  folding stability dG unfold: 0.679 ± 0.05 kcal/mol
[2]
  folding stability dG unfold: 0.165 ± 0.064 kcal/mol

## SAGTITKLKTEYDPKGYRFIELLDPLPNDPSVPAEALAQEIKEKYGAEKAEIKPVPGTGAIRILLIKPESAG [r14_228_JUSTAS]
[1]
  folding stability dG unfold: -0.396 ± 0.48 kcal/mol
[2]
  folding stability dG unfold: -0.67 ± 0.42 kcal/mol

## SAGTVFVAHSDDRPPVAAPETGTVTLPAPDGARVTLRRLPDGTAVVTPDGGESRTLGPGARVEVRLLPASAG [r5_869_TrMRF]
[1]
  folding stability dG unfold: -0.156 ± 0.37 kcal/mol
[2]
  folding stability dG unfold: < -1 kcal/mol

## SAGVEPTPDGKWRIEINPEEGHIRVRMKNGEPHEIPFPEGSLDDFADEIAEKMGFPPDKPFKIDEIEIWSAG [r5_923_TrROS]
[1]
  folding stability dG unfold: -0.0363 ± 0.21 kcal/mol
[2]
  folding stability dG unfold: -0.273 ± 0.19 kcal/mol

## SAGVKIKWEPIDRDPKNGHVYYSITIKVPKDGKPLDEIPIGMYQFDNDDGKWEPMPEEDIKQQAKDLLNSAG [r5_909_TrROS]
[1]
  folding stability dG unfold: 0.0649 ± 0.34 kcal/mol
[2]
  folding stability dG unfold: -0.415 ± 0.52 kcal/mol

## SAKVHIPFPPGMPPKQMRNMVKNALREQQNNGKEPDKITIHMPPDQRPIKDWLKEAGLPPDNVKWEPWPSAG [r14_589_TrROS]
[1]
  folding stability dG unfold: -0.422 ± 0.55 kcal/mol
[2]
  folding stability dG unfold: < -1 kcal/mol

## SALEPGEWRKVTAEIPLPGGPLKLEIYEWPSNGHYYADIRNPGNGRPVEIPFPFDTPDDAVDEAKDFIRSAG [r14_65_TrROS]
[1]
  folding stability dG unfold: 0.101 ± 0.4 kcal/mol
[2]
  folding stability dG unfold: -0.625 ± 0.63 kcal/mol

## SAMIVTEKEDPATNTTLVTTTEIYPDSITVTTTTITKSGEILTESPSTTTIPLGSPLGPENKAKNIALSSAG [r14_930_JUSTAS]
[1]
  folding stability dG unfold: -0.184 ± 0.14 kcal/mol
[2]
  folding stability dG unfold: < -1 kcal/mol

## SAMKKLRELLEKEFPDRPIKSVKNLGEKLAPDGTPYYVVELTFPDGSTITVTITSEEKPEILEAIEEEESAG [r14_143_JUSTAS]
[1]
  folding stability dG unfold: 3.9 ± 0.22 kcal/mol
[2]
  folding stability dG unfold: 4.03 ± 0.27 kcal/mol

## SAMKTYTFEFTLTVPPDTPLEEVKAKVKEKVKAELKKLGIPLPETAKIEIKKVKEEGNKIYFKVTVTNKSAG [r14_735_JUSTAS]
[1]
  folding stability dG unfold: 4.06 ± 0.057 kcal/mol
[2]
  folding stability dG unfold: 4.16 ± 0.14 kcal/mol

## SAMTPDELADELAKKFHQQNQENGYEIPDVDIKYDPEEDRVTVEFEMRNKNTGRPMRPTFQIDDPEDILSAG [r14_409_TrROS]
[1]
  folding stability dG unfold: -0.247 ± 0.33 kcal/mol
[2]
  folding stability dG unfold: < -1 kcal/mol

## SAPAVETRSVTTEPVASPTPRVPYTLVVESVTTTAVDAAGTPVATSVSLKEVRYGDGTISRTFSATPTASAG [r14_848_JUSTAS]
[1]
  folding stability dG unfold: -0.953 ± 0.29 kcal/mol
[2]
  folding stability dG unfold: < -1 kcal/mol
